Assay results as given in patent US20230048046A1 (CUGENE, published 2023).

B1: huIL-15Rβ-6His (receptor, human, UniProt P14784 27-239, looked up)
chain: AVNGTSQFTCFYNSRANISCVWSQDGALQDTSCQVHAWPDRRRWNQTCELLPVSQASWACNLILGAPDSQKLTTVDIVTLRVLCREGVRWRVMAIQDFKPFENLRLMAPISLQVVHVETHRCNISWEISQASHYFERHLEFEARTLSPGHTWEEAPLLTLKQKQEWICLETLTPDTQYEFQVRVKPLQGEFTTWSPWSQPLAFRTKPAALGKD
notes: Coated on the ELISA plate; also called IL-15Rβ subunit; huIL-15R/3-6His (so in the source); not shown: 6His tag per the name

Experiments:
[1] = target: P-0313, C-terminal bivalent IL-15 S58D/IL-15Rα (non-covalent) Fc fusion protein (human, UniProt Q13261 31-107); assay: ELISA
huIL-15Rβ-6His [2] = target: B1; assay: ELISA EC50 against P-0153 (IL-15 wild type)
Procedure: (§1) The binding activity was tested in ELISA assay. Briefly, Nunc Maxisorp (ThermoFisher) plates were coated overnight at 4° C. with huIL-15R/3-6His at 1 μg/well (100 μl/well) in bicarbonate buffer pH 9.4 (ThermoFisher). After washing 3 times with PBS/0.05% Tween20, plates were incubated with SuperBlock (300 μl/well) at room temperature for 2 hrs. to block nonspecific binding. After washing, IL-15 compounds each at 3-fold serial dilutions with blocking buffer were added to the plates (100 μl/well) and incubated at room temperature for 1 hr. After washing, the Fc fusions were detected by 1 hr. incubation at room temperature with a goat anti-human IgG Fc secondary antibody conjugated with horseradish peroxidase (HRP) at 1:5000 dilution in blocking buffer (ThermoFisher) (100 μl/well). After washing, TMB substrate (ThermoFisher) was added (100 ul/well). Plates were sealed and incubated 5-20 min at room temperature in dark. Reaction was stopped by adding 2N sulfuric acid (Ricca Chemical) (50 uL/well) and absorbance was read at 450-590 nm.
(§2) The IL-15 variants have amino acid deletion, insertion or point mutations introduced in the human IL-15 peptide. […]

huIL-15Rβ-6His [3] = target: B1; assay: ELISA, huIL-15Rβ-6His coated, anti-human IgG Fc-HRP detection
Procedure: as §1, §2

binding result [1] | Fold change (huIL-15Rβ-6His [2]) | EC50 (huIL-15Rβ-6His [3]) | Binder
binds |  |  | B1
 | 16 fold | 10.2 nM | P-0176, IL-15i1 (GS insertion after N95) in IL-15/IL-15Rα heterodimeric Fc fusion format (Fc fusion) chain 1: DKTHTCPPCPAPEAAGAPSVFLFPPKPKDTLMISRTPEVTCVVVDVSHEDPEVKFNWYVDGVEVHNAKTKPREEQYNSTYRVVSVLTVLHQDWLNGKEYKCKVSNKALPAPIEKTISKAKGQPREPQVYTLPPCREEMTKNQVSLSCAVKGFYPSDIAVEWESNGQPENNYKTTPPVLDSDGSFFLVSKLTVDKSRWQQGNVFSCSVMHEALHNHYTQKSLSLSPGEPKSSDKTHTSPPSPNWVNVISDLKKIEDLIQSMHIDATLYTESDVHPSCKVTAMKCFLLELQVISLESGDASIHDTVENLIILANNSLSSNGNVTESGCKECEELEEKNGSIKEFLQSFVHIVQMFINTS chain 2: DKTHTCPPCPAPEAAGAPSVFLFPPKPKDTLMISRTPEVTCVVVDVSHEDPEVKFNWYVDGVEVHNAKTKPREEQYNSTYRVVSVLTVLHQDWLNGKEYKCKVSNKALPAPIEKTISKAKGQPREPQVCTLPPSREEMTKNQVSLWCLVKGFYPSDIAVEWESNGQPENNYKTTPPVLDSDGSFFLYSKLTVDKSRWQQGNVFSCSVMHEALHNHYTQKSLSLSPGEPKSSDKTHTSPPSPITCPPPMSVEHADIWVKSYSLYSRERYICNSGFKRKAGTSSLTECVLNKATNVAHWTTPSLKCIRDPALVHQRPAPP
 | 59 fold | 38 nM | P-0177, IL-15i2 (GGSGG insertion after N95) in IL-15/IL-15Rα heterodimeric Fc fusion format (Fc fusion) chain 1: DKTHTCPPCPAPEAAGAPSVFLFPPKPKDTLMISRTPEVTCVVVDVSHEDPEVKFNWYVDGVEVHNAKTKPREEQYNSTYRVVSVLTVLHQDWLNGKEYKCKVSNKALPAPIEKTISKAKGQPREPQVYTLPPCREEMTKNQVSLSCAVKGFYPSDIAVEWESNGQPENNYKTTPPVLDSDGSFFLVSKLTVDKSRWQQGNVFSCSVMHEALHNHYTQKSLSLSPGEPKSSDKTHTSPPSPNWVNVISDLKKIEDLIQSMHIDATLYTESDVHPSCKVTAMKCFLLELQVISLESGDASIHDTVENLIILANNSLSSNGNVTESGCKECEELEEKNGGSGGIKEFLQSFVHIVQMFINTS chain 2: DKTHTCPPCPAPEAAGAPSVFLFPPKPKDTLMISRTPEVTCVVVDVSHEDPEVKFNWYVDGVEVHNAKTKPREEQYNSTYRVVSVLTVLHQDWLNGKEYKCKVSNKALPAPIEKTISKAKGQPREPQVCTLPPSREEMTKNQVSLWCLVKGFYPSDIAVEWESNGQPENNYKTTPPVLDSDGSFFLYSKLTVDKSRWQQGNVFSCSVMHEALHNHYTQKSLSLSPGEPKSSDKTHTSPPSPITCPPPMSVEHADIWVKSYSLYSRERYICNSGFKRKAGTSSLTECVLNKATNVAHWTTPSLKCIRDPALVHQRPAPP
